Key:
Smc2 = target: T1, Smc2 (budding yeast (S. cerevisiae), UniProt P38989 1-1170); experiment: cryo-EM structure; condensin pentamer with 100 nM relaxed circular DNA (1,789 bp), 5 mM ADP, 1 mM BeSO4, 10 mM NaF in TNT buffer pH 7.5; VPP and non-VPP images; low-resolution maps of the head module and of Ycg1-DNA; details: both partners purified
T1 construct: Smc2, SMC subunit of budding yeast (S. cerevisiae) condensin; only the head domain and proximal coiled coil (neck) are resolved in the maps; Subunit of the wild-type condensin tetramer and pentamer used for cryo-EM
T1 sequence: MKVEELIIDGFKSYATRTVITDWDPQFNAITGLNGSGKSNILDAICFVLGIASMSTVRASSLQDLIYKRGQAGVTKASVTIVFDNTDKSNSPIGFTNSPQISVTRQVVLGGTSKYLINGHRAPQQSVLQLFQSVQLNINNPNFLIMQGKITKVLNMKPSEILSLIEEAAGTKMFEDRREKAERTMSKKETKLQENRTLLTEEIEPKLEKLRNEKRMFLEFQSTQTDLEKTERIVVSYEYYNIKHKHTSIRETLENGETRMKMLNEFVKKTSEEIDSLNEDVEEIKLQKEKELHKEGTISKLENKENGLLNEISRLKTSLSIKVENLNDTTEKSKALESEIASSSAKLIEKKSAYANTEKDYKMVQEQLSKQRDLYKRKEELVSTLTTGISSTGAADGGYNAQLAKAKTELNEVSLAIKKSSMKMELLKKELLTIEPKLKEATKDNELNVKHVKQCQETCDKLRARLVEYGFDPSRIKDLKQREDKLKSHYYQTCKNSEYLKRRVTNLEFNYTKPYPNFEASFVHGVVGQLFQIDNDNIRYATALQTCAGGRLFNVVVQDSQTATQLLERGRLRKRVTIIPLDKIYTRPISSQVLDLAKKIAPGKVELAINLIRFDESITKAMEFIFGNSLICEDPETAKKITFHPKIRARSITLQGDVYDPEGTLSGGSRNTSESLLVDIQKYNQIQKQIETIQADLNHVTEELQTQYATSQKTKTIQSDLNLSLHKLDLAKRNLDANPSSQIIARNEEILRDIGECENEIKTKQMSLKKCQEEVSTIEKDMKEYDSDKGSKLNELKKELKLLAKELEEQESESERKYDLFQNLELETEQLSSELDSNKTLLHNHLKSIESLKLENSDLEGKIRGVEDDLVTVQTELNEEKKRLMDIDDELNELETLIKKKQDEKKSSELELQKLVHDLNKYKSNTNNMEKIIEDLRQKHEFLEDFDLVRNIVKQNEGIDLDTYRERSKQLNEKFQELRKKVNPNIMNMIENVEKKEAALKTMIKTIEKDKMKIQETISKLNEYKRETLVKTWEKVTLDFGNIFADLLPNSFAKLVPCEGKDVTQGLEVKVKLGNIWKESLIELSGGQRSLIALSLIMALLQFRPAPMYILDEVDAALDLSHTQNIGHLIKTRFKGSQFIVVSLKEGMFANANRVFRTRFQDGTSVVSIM

Ycs4 = target: T2, Ycs4 (S. cerevisiae, UniProt Q06156 1-1176); experiment: as above; details: both partners purified
T2 construct: Ycs4, HAWK (HEAT repeat) subunit of S. cerevisiae condensin
T2 sequence: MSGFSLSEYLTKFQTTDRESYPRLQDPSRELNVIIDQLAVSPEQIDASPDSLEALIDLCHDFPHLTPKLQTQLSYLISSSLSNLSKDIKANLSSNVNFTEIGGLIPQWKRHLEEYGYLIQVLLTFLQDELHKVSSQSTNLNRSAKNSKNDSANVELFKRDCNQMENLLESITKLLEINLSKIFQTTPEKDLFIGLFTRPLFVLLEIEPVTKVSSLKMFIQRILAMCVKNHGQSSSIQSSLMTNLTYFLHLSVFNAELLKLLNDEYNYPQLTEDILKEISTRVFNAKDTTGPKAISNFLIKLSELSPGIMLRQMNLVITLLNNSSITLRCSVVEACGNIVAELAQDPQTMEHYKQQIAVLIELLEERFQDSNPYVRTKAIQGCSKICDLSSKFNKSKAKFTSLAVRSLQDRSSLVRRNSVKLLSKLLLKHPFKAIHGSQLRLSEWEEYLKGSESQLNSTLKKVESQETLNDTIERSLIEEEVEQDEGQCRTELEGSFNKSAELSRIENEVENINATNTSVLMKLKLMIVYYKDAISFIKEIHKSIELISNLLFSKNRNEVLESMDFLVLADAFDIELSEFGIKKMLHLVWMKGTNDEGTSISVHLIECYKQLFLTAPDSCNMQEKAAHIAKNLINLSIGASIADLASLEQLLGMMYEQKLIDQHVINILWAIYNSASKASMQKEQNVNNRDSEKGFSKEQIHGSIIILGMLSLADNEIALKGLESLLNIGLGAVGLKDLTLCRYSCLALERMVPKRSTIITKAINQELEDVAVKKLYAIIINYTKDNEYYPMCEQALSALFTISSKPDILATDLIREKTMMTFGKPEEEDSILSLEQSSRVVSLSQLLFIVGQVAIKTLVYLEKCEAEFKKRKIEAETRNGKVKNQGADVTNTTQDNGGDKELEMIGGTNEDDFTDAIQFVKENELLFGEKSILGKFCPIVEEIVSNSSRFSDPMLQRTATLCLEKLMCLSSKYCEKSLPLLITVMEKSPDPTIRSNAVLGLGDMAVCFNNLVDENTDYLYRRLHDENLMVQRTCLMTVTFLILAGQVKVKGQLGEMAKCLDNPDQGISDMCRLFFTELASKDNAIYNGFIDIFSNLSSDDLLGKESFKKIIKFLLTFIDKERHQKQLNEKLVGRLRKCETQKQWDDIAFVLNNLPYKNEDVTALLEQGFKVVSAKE

binding result (Smc2): binds | binding result (Ycs4): binds
B1: Brn1-HA3-His12 (natural protein, budding yeast (S. cerevisiae), UniProt P38170 1-754, looked up)
chain: MTTQLRYENNDDDERVEYNLFTNRSTMMANFEEWIKMATDNKINSRNSWNFALIDYFYDLDVLKDGENNINFQKASATLDGCIKIYSSRVDSVTTETGKLLSGLAQRKTNGASNGDDSNGGNGEGLGGDSDEANIEIDPLTGMPISNDPDVNNTRRRVYNRVLETTLVEFETIKMKELDQELIIDPLFKKALVDFDEGGAKSLLLNTLNIDNTARVIFDASIKDTQNVGQGKLQRKEEELIERDSLVDDENEPSQSLISTRNDSTVNDSVISAPSMEDEILSLGMDFIKFDQIAVCEISGSIEQLRNVVEDINQAKDFIENVNNRFDNFLTEEELQAAVPDNAEDDSDGFDMGMQQELCYPDENHDNTSHDEQDDDNVNSTTGSIFEKDLMAYFDENLNRNWRGREHWKVRNFKKANLVNKESDLLEETRTTIGDTTDKNTTDDKSMDTKKKHKQKKVLEIDFFKTDDSFEDKVFASKGRTKIDMPIKNRKNDTHYLLPDDFHFSTDRITRLFIKPGQKMSLFSHRKHTRGDVSSGLFEKSTVSANHSNNDIPTIADEHFWADNYERKEQEEKEKEQSKEVGDVVGGALDNPFEDDMDGVDFNQAFEGTDDNEEASVKLDLQDDEDHKFPIRENKVTYSRVSKKVDVRRLKKNVWRSINNLIQEHDSRKNREQSSNDSETHTEDESTKELKFSDIIQGISKMYSDDTLKDISTSFCFICLLHLANEHGLQITHTENYNDLIVNYEDLATTQAAS
notes: Brn1, kleisin subunit of budding yeast (S. cerevisiae) condensin; 754 residues as printed (279/754 traced in the head module map); The tags' end is read from the plasmid's name BRN1-HA3-His12; also called kleisin Brn1
